Test results as given in the supplement of paper PMC9170038.

Test system: K4 kissing-loop RNA reporter
Test: apparent KD of K4 kissing-loop reporter; higher = weaker reporter binding
Conditions: Eterna round: R107
Protocol: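 RNA-MaP round R107: designed RNA switches with theophylline, tryptophan, arginine or FMN aptamers are transcribed on-chip within common flanks. They are titrated with a labelled K4 kissing-loop RNA reporter in RNA-MaP buffer (100 mM Tris pH 7.5, 80 mM KCl, 4 mM MgCl2), without ligand or with the indicated ligand. Median apparent KD per design.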

[1] = input ligand: theophylline 20 uM
[2] = input ligand: tryptophan 2.4 mM
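Also: bound reporter read as fluorescence of individual clusters on recovered sequencing chips by microscopy, with normalized cluster intensities fitted with a binding model.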

Row | Sequence | apparent KD of K4 kissing-loop reporter (input ligand: FMN 200 uM) | apparent KD of K4 kissing-loop reporter (input ligand: arginine 13.2 mM) | apparent KD of K4 kissing-loop reporter (input ligand: none) | apparent KD of K4 kissing-loop reporter [1] | apparent KD of K4 kissing-loop reporter [2]
1 | CGCCAGUGAUGUUGGCGCAGCUACCGGGAAGGAGCGCCGUAGUCGGCAGGUAGGUCGCCCGGGCAGUGAUGUUGCCUCAUACCGU [Exclusion Arginine A GF 21] | 0.229 µM | 0.247 µM | 0.258 µM | 0.347 µM | 0.236 µM
2 | AACUGGGUUCGUGAUACCAGCUCACACAUGAGUGAUGUUCAUGUAGUGGGUAAAAUGUGGAGCCCUUGGCAGCACUGUGACCACG [XTheo-B1] | 0.0915 µM | 0.0764 µM | 0.0812 µM | 0.0675 µM | 0.0813 µM
3 | UAUGUACACGGGUAGUGGUACAUCGAGGAAGGAGCGUGCGCAGGCACAGGUAGGUCGCCUCAGCGCACGAGUGAUGUUCGUGGGC [Inares] | 0.327 µM | 0.259 µM | 0.306 µM | 0.298 µM | 0.265 µM
4 | AGACUACCACACUGUCAAUAGACAGUGAACUAGGAUAUGCUGAUAAGCAGAAGGAGUGAUGUUCCUAGGUAGUCAAUAAAAUAAU [FmnAX 13 #SwitchBubble #StaticStem #K4Early] | 0.349 µM | 0.35 µM | 0.383 µM | 0.447 µM | 0.401 µM
5 | CUACUGAGUGAUGUUCAACAUAAUGUCGAUACCAGCACAUUUGCCUGCCCUUGGCAGCGACGCACCAGGACCUGAGAGUACUGGU [theeternabot_sameState_KL_Theo_A_13] | 0.567 µM | 0.637 µM | 0.623 µM | 0.612 µM | 0.41 µM
6 | ACGUAGUUCUAGGAUACCAGCCAAGGAGCCCAGGACAAAAGUCCUGGCGCCAGUGAUGUUGGCCCUUGGCAGCCUAGAACUACGA [Omei KL Theo B Exc B v4] | 0.181 µM | 0.157 µM | 0.157 µM | 0.136 µM | 0.151 µM
7 | UGUGUUUACCUGACUCAGUGAUGUUGAGAAGGAGCGUGCGAAUGCACAGGUAGGUCGCUCAACCUAAAUUCAGGUGAGCACUAAA | 0.303 µM | 0.0764 µM | 0.408 µM | 0.656 µM | 0.724 µM
8 | CGAUACGGAAAUACGUGUCUCUAUUCAGAAGGAGCGUGUUUGUACACAGGUAGGUCGCUGAAAUUUAAACUAGUGAUGUUAGACU [JR_SSArginiA_Sub003] | 1.16 µM | 0.816 µM | 1.16 µM | 0.895 µM | 0.929 µM
9 | AGUGAUGUUGAGUUAUCUUAGUGAAGUGAUCGAGGACCGGUACGGCCGCCACUCGAGUGAUGAGUGAGUGAUGUUUGUUUAGUGA [zzymullin] | 0.546 µM | 0.431 µM | 0.549 µM | 0.593 µM | 0.311 µM
10 | UGUCAUUGGUCUGAUACCAGUUAGACCGAUAAGGUCAAAACUGGAGUGAUGUUCCCAAAUAACCCUUGGCAGCAGACCGAUGACU [TheoBS 5 #SwitchBubble #StaticStem] | 0.452 µM | 0.116 µM | 0.185 µM | 0.249 µM | 0.241 µM
11 | AAACAUUGGUCUGAUACCAGCUUGAUCGGAAACGAUCUGCUGGAGUGAUGUUCCAAGUAAAGCCCUUGGCAGCAGACCGAUGAAA [MAT - Same State Theophlline B - Mod of Eli - D16] | 0.121 µM | 0.0696 µM | 0.149 µM | 0.192 µM | 0.115 µM
12 | GCCGUACGCAUGGAUACCAGCUAUUAGAGUGAUGUUCUAUGGCCCUGCCAAUGGAGCUGUAGCCCUUGGCAGCCAUGCGUACGGC | 0.112 µM | 0.0952 µM | 0.109 µM | 0.105 µM | 0.104 µM
13 | GGCCUGGUCGCCUAGUGAUUGUCGGUAGGACGAGGACCGGUACGGCCGCCACUCGGCUUACCCAGUGAUGUUGGGUAUCCGUGGC [Onercelama] | 0.194 µM | 0.136 µM | 0.177 µM | 0.176 µM | 0.235 µM
14 | AAGAGGACCAACAUCACUAGUCCUCGAAUACGAGGACCGGUACGGCCGCCACUCGAUAACUUGCAGUGAUGUUGCAAGUAAGAAU [(T)''-(K)'-(T)'-(T1)-(T2)-(K1)-(K2)_Design3] | 0.369 µM | 0.253 µM | 0.307 µM | 0.345 µM | 0.439 µM
15 | AGGAUCCGUCGACAAAAGUCGACAUAAUCCAAGGAUAUGACGAAAGUCAGAAGGUGGGCAUAAGUCCAGUGAUGUUGGAGGAUCC [FmnA 18 #SwitchBubble #K4Late] | 0.575 µM | 0.36 µM | 0.587 µM | 0.523 µM | 0.445 µM
16 | AAGCCAGUGAUGUUGGCAAAAUUUACUGAAGGAGCGCGUGAAAACGCAGGUAGGUCGCAGAACCUUGCCAACUAACACGAAAGUG [Ex Arginine A K4 20] | 0.261 µM | 0.237 µM | 0.253 µM | 0.469 µM | 0.251 µM
17 | CGGACUGCAGGAAGGAGCGGCGGACGGAGUGAUGUUCCGGGUAGUGAUGUUACCAAACACCGCCAGGUAGGUCGCCUGUUGCUCC [Same State Arginine B GF8] | 0.161 µM | 0.134 µM | 0.17 µM | 0.145 µM | 0.147 µM
18 | GCCGUACGCAUGGAUACCAGCACACAACGAAGUGAUGUUUCGUGCGUAGAUUUGUGCUACUGCCCUUGGCAGCCAUGCGUACGGC | 0.0866 µM | 0.069 µM | 0.0822 µM | 0.0693 µM | 0.0786 µM
19 | AGGUUUUGAUUAGGAUAUGCAUUGACGAUGAGAAUAUAGUGAUGUUAUAUACUACGAAUUAGUAAAGUAGAAGGGAUUGAGGUUU [SSFMNB.aA] | 0.353 µM | 0.275 µM | 0.324 µM | 0.368 µM | 0.241 µM
20 | UGCAGUGAUGUUGCUAUUUGUCUUGAUAAACGAGGACCGGUACGGCCGCCACUCGAUUUCUCUCUUAUCGGGUAUGUUGUUUAGU [#21 K4 Tryptophan A Exclusion] | 0.156 µM | 0.186 µM | 0.172 µM | 0.205 µM | 0.113 µM
21 | UGUCAUUGGUCGGCCGCCACUGGACCGGGUAUAAUCCCAGUGAUGUUGGUAAAAUACGGCCGCCACAGGACCGGGACCGAUGACU [TrypBS 15 #DoubleAptamer #SwitchBubble #K4Middle] | 0.234 µM | 0.208 µM | 0.24 µM | 0.215 µM | 0.134 µM
